Assay results reported in patent publication US20210230294A1 (Incyte, published 2021).
Numbering of substitutions follows the chain as printed. Numbers in names are those of the source.

T1: human CD73 on the cell surface (MDA-MB-231 and A375 cells) (human, UniProt P21589 27-549)
T1 construct: also called cell surface CD73; cellular CD73
T1 sequence: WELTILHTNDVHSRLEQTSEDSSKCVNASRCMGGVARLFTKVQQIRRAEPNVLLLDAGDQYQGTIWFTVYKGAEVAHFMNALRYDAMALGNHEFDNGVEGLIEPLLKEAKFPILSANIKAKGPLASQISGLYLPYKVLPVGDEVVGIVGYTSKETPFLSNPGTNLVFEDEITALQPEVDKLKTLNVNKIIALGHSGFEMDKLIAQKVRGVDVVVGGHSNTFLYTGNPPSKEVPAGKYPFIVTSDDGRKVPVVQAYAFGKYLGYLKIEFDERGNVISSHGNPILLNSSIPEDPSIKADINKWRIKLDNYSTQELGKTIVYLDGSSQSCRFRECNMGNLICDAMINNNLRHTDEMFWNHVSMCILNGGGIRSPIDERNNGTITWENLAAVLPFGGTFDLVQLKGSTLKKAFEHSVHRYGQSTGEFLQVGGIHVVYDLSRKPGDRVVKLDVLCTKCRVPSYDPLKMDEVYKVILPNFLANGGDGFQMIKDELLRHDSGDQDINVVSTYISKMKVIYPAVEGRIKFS

T2: recombinant human CD73 (SEQ ID NO:70) (human, UniProt P21589 27-549)
T2 construct: Soluble recombinant protein in normal SPR running buffer (open conformation), the soluble enzyme assay and HDX-MS; SPR stock bought from BPS Bioscience; also called rhuCD73; CD73 in the open conformation
T2 sequence: T1 sequence

T3: mouse CD73 (SEQ ID NO:71) (mouse, UniProt Q61503 29-551)
T3 construct: Open conformation (normal SPR running buffer); also called Murine; murine CD73
T3 sequence: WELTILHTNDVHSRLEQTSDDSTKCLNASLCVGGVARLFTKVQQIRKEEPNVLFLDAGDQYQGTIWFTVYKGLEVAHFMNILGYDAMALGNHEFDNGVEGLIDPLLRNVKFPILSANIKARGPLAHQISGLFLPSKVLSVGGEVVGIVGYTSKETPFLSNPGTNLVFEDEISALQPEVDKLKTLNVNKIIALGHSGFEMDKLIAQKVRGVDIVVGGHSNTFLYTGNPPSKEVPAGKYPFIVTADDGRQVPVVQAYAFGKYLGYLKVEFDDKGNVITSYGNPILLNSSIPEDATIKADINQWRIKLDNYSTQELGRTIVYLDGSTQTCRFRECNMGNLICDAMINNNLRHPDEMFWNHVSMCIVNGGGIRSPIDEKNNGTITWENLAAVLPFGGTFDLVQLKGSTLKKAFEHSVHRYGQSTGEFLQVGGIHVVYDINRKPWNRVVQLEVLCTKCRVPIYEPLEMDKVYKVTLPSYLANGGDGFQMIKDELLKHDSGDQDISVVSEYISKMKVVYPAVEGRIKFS

T4: cynomolgus CD73 (SEQ ID NO:72) (cynomolgus, UniProt P21589 27-549 (human entry))
T4 construct: Open conformation (normal SPR running buffer)
T4 chain: T1 sequence with M199T, T350A, V466I

B1: 3-F03 (full-length human antibody) (antibody, human IgG1, kappa, N297A)
heavy: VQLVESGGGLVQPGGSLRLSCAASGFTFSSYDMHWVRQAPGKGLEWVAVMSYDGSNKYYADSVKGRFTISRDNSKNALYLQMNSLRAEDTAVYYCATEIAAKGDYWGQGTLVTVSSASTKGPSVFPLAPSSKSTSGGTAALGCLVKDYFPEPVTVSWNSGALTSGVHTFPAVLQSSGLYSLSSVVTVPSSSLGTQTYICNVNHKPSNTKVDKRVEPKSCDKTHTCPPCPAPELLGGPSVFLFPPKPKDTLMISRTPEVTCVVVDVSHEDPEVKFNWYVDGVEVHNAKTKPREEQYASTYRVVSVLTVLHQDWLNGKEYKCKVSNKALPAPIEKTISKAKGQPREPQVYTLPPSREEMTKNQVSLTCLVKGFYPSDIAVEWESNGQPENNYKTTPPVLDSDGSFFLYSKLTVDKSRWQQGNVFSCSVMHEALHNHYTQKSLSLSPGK
light: IQMTQSPSSLSASVGDRVTITCRASQGISNYLAWYQQKPGKAPKLLIYAASTLQSGVPSRFSGSGSGTDFTLTISSLQPEDFATYYCQQSYSTPHFGQGTRLEIKRTVAAPSVFIFPPSDEQLKSGTASVVCLLNNFYPREAKVQWKVDNALQSGNSQESVTEQDSKDSTYSLSSTLTLSKADYEKHKVYACEVTHQGLSSPVTKSFNRGEC
notes: Human IgG1/kappa with N297A; also called Antibody 3-F03; Clone 3-F03
B2: CL25_hu_11-4 (antibody, V domains shown)
VH: QVQLVQSGAEVKKPGASVKVSCKASGYTFTSYGLSWVRQATGQGLEWMGEIYPGSGNTYYNEKFKGRVTMTANTSISTAYMELSSLRSEDTAVYYCARYDYLGSSYGFDYWGAGTTVTVSS
VL: DIQMTQSPSSLSASVGDRVTITCKASQDVSTAVAWYQQKPGKAPKLLLYSASYRYSGVPSRFSGSGSGTDYTLTISSLQPEDFATYYCQQHYNTPYTFGGGTKLEIK
notes: Humanized CL25 antibody
B3: 3-F03_411 (antibody, human IgG1, kappa, N297A)
heavy: not shown
light: B1 light
B4: CL25_hu_8-4 (antibody, V domains shown)
VH: B2 VH with A72R
VL: B2 VL
notes: Humanized CL25 antibody; captured by anti-human Fc in SPR
B5: CL25_hu_8-6 (antibody, V domains shown)
VH: B2 VH with A72R
VL: B2 VL with D1A, Q3R, L11F, V15T, L48I, Y71F, S77C, P80S
notes: Humanized CL25 antibody
B6: CL25_hu_9-4 (antibody, V domains shown)
VH: B2 VH with A16S, T41P, M70I, N73D, T74E, I76T
VL: B2 VL
notes: Humanized CL25 antibody
B7: CL25_hu_11-6 (antibody, V domains shown)
VH: B2 VH
VL: B2 VL with D1A, Q3R, L11F, V15T, L48I, Y71F, S77C, P80S
notes: Humanized CL25 antibody
B8: HzCL25 (antibody, human IgG1, kappa, N297A, V domains shown)
VH: EVQLVQSGAEVKKPGESLKISCKGSGYTFTSYGLSWVRQMPGKGLEWMGEIYPGSGNTYYNEKFKGQVTISADKSISTAYLQWSSLKASDTAMYYCARYDYLGSSYGFDYWGAGTTVTVSS
VL: DIVMTQSPDSLAVSLGERATINCKASQDVSTAVAWYQQKPGQPPKLLIYSASYRYSGVPDRFSGSGSGTDFTLTISSLQAEDVAVYYCQQHYNTPYTFGGGTKLEIKR
notes: Humanized IgG1/kappa with N297A; also called humanized CL25
B9: CL25_hu_11-5 (antibody, V domains shown)
VH: B2 VH
VL: DIVMTQSPDSLAVSLGERATINCKASQDVSTAVAWYQQKPGQPPKLLIYSASYRYSGVPDRFSGSGSGTDFTLTISSLQAEDVAVYYCQQHYNTPYTFGGGTKLEIK
notes: Humanized CL25 antibody
B10: CL25_hu_8-5 (antibody, V domains shown)
VH: B2 VH with A72R
VL: B9 VL
notes: Humanized CL25 antibody
B11: CL25_hu_9-5 (antibody, V domains shown)
VH: B2 VH with A16S, T41P, M70I, N73D, T74E, I76T
VL: B9 VL
notes: Humanized CL25 antibody
B12: CL25_hu_9-6 (antibody, V domains shown)
VH: B2 VH with A16S, T41P, M70I, N73D, T74E, I76T
VL: B2 VL with D1A, Q3R, L11F, V15T, L48I, Y71F, S77C, P80S
notes: Humanized CL25 antibody
B13: CL25_hu_10-4 (antibody, V domains shown)
VH: B8 VH
VL: B2 VL
notes: Humanized CL25 antibody
B14: CL25_hu_10-6 (antibody, V domains shown)
VH: B8 VH
VL: B2 VL with D1A, Q3R, L11F, V15T, L48I, Y71F, S77C, P80S
notes: Humanized CL25 antibody

The binders below were run against T1, human CD73 on the cell surface … (assay: flow cytometry on MDA-MB-231 cells, PE-conjugated secondary antibody, GMFI).

For B1, the “EC50 (read off the curve)” value was about 3 µg/mL.

Biological target: T1, human CD73 on the cell surface …
Test: as above
Remark: another data set of the same source
Method: The cells were stained with the indicated concentration of antibodies for 30 minutes on ice (FIG. 2A and FIG. 2B). Next, the cells were washed and stained using goat anti-mouse secondary conjugated to phycoerythrin (PE) for 30 minutes on ice. The cells were then washed and analyzed by flow cytometry. Geometric mean fluorescence intensity (GMFI) of CD73 staining was graphed (FIG. 2A and FIG. 2B).

B2 was tested, and the “EC50 (read off the curve)” value was about 0.1 µg/mL.

Biological target: T1, human CD73 on the cell surface …
Test: as above
Remark: another data set of the same source
Method: Cells were stained with the indicated concentration of antibodies for 1 hour on ice. Cells were then washed and stained goat anti-mouse secondary conjugated to PE for 30 minute on ice. Cells were then washed and analyzed by flow cytometry. The GMFI of CD73 staining is graphed (FIG. 13).

In the case of B3, the “EC50 (read off the curve)” value is reported as about 1 µg/mL.

Each binder was assayed against T1, human CD73 on the cell surface … (assay: flow cytometry on A375 cells, PE-conjugated secondary antibody, GMFI).

In the case of B1, the “EC50 (read off the curve)” value is reported as about 0.1 µg/mL.

Each binder was assayed against T2, recombinant human CD73 (SEQ ID NO:70) (assay: SPR (Biacore 8K), antibody captured on anti-human Fc, CD73 as analyte, open conformation).
Method: (§1) The SPR running buffer (10 mM HEPES, 150 mM NaCl, 3 mM EDTA and 0.05% v/v Surfactant P20, pH 7.4) was prepared from 10×HBS-EP Buffer (GE Healthcare). Anti-human Fc antibodies (GE Healthcare) were immobilized via amine coupling on all sixteen flow cells of an S series sensor chip CM5 (GE Healthcare). The immobilization levels were ˜9000 RU for all flow cells. […] The non-cleavable ADP analogue APCP (adenosine-5′-(α,β-methylene) diphosphate) with the presence of Zn²⁺ can be used to shift the CD73 conformational equilibrium from open towards closed. Therefore, recombinant CD73 was incubated with SPR running buffer in the presence of 100 μM APCP and 10 μM ZnCl₂ (closed SPR running buffer) to study the binding of anti-CD73 antibody to the CD73 in the closed conformation. To achieve this, the ABA injection feature in Biacore 8K was used. For open conformation, the ABA injection sequence started with 60 seconds injection of running buffer. Then, CD73 3-fold serial dilution concentration series prepared from CD73 stock (BPS Bioscience) and running buffer were injected for 180 seconds immediately followed by running buffer for 240 seconds. For closed conformation, the normal SPR running buffer was replaced by closed SPR running buffer. Surface was regenerated with 30 seconds injection of 3 M MgCl₂.

B2 and B4 are within 1.5-fold of each other in Kd: 2.48 nM for the first, 2.29 nM for the second.

Going from B5 to B6, the Kd rises from 1.55 nM to 6.9 nM (4.5-fold). The first binds more tightly here.

Compared with B7, B1 is 5-fold lower in Kd: 1.84 nM for the first, 0.37 nM for the second. The second binds more tightly here.

First: B8
Second: B9
The Kd of the first is lower: under 0.449 nM for the first, 1.46 nM for the second.

First: B10
Second: B11
The Kd of the first is 2.8-fold lower: 0.718 nM for the first, 2.02 nM for the second.

First: B12
Second: B13
The Kd of the first is 1.9-fold higher: 2.25 nM for the first, 1.2 nM for the second.

Work on B14 yielded a Kd of 1.75 nM.

In order of falling koff:
1. B6  0.00264 s⁻¹
2. B4  0.00176 s⁻¹
3. B2  0.00155 s⁻¹
4. B9  0.00117 s⁻¹
5. B11  0.00114 s⁻¹
6. B5  0.00111 s⁻¹
7. B13  0.00107 s⁻¹
8. B7  0.00101 s⁻¹
9. B12  0.000953 s⁻¹
10. B10  0.000949 s⁻¹
11. B14  0.00092 s⁻¹
12. B8  0.000449 s⁻¹

B2 and B4 are within 1.5-fold of each other in kon: 624000 M⁻¹ s⁻¹ for the first, 770000 M⁻¹ s⁻¹ for the second.

First: B5
Second: B6
The kon of the first is 1.9-fold higher: 715000 M⁻¹ s⁻¹ for the first, 382000 M⁻¹ s⁻¹ for the second.

First: B7
Second: B8
The kon of the first is lower: 550000 M⁻¹ s⁻¹ for the first, over 1e+06 M⁻¹ s⁻¹ for the second.

Going from B9 to B10, the kon rises from 799000 M⁻¹ s⁻¹ to over 1e+06 M⁻¹ s⁻¹.

B11 and B12 are within 1.5-fold of each other in kon: 565000 M⁻¹ s⁻¹ for the first, 424000 M⁻¹ s⁻¹ for the second.

Going from B13 to B14, the kon falls from 887000 M⁻¹ s⁻¹ to 524000 M⁻¹ s⁻¹ (1.7-fold).

These binders were tested against T3, mouse CD73 (SEQ ID NO:71) in the same assay as above.
Method: as §1

With B1 the Kd was 1.66 nM.

B8: no binding.

Biological target: T4, cynomolgus CD73 (SEQ ID NO:72)
Test: as above
Method: as §1

Going from B1 to B8, the Kd falls from 0.734 nM to under 0.468 nM. The second binds more tightly here.

In the case of B8, the koff is reported as 0.000468 s⁻¹.

With B8 the kon was over 1e+06 M⁻¹ s⁻¹.
